Test results: article PMC8395313, “Membrane Association Modes of Natural Anticancer Peptides: Mechanistic Details on Helicity, Orientation, and Surface Coverage” (International Journal of Molecular Sciences, 2021)
Ends that are not written are not given here.

Molecular target: the molecule itself
Assay: dynamic light scattering; free peptide without lipid; DLS at 20 °C in CD buffer (10 mM Na-phosphate, 100 mM Na2SO4, pH 7.0); the methods give 20 or 40 µM peptide for the DLS samples

B1: Temporin-La (peptide)
peptide: LLRHVVKILEKYL-NH2
notes: 13 residues; MW = 1622.6 as printed in the methods; also called Tempo-La; TEMPO-LA; source: synthetic peptide (NovoPro Bioscience Inc., Shanghai; purity >= 95%)
B1: binds.
